The source of these data is patent EP4585616A1, “ANTIBODY CAPABLE OF SPECIFICALLY BINDING TO ROR1, […] THEREOF, AND PREPARATION METHOD THEREFOR AND USE THEREOF” (Hefei Institutes of Physical Science, Chinese Academy of …, priority 2022, dated 2024).

Experiment [1] concerns the target T1, human ROR1 on the surface of tumor cells (human, UniProt Q01973 30-937).
T1 construct: whole, on cells; also called ROR1 on the cell surface; tumor cell ROR1
The experiment is described as follows: FACS, NCI-H226 cells. On the technique in general: In flow cytometry, cells or beads pass a laser one at a time.

The target of experiment [2] is T1, human ROR1 on the surface of tumor cells. The experiment is described as follows: FACS, MDA-MB-231 cells.
Experiment [3] has as its target T2, Extracellular domain of human ROR1 protein (ROR1-ECD) (human, UniProt Q01973 30-403).
T2 construct: Expressed in HEK293T cells; also called human ROR1-ECD; purified human ROR1 protein extracellular segment
The experiment is described as follows: ELISA, plate-coated ROR1-ECD.

For experiment [4], the target named is T3, ROR1 extracellular segment sequence (including transmembrane) on CHO cells (human, UniProt Q01973 30-472).
T3 construct: Cloned into pCDNA3.1 and transfected into CHO cells; also called CHO-ROR1 (extracellular segment); CHO-ROR1
T3 sequence (Q01973 30-472 limits assumed): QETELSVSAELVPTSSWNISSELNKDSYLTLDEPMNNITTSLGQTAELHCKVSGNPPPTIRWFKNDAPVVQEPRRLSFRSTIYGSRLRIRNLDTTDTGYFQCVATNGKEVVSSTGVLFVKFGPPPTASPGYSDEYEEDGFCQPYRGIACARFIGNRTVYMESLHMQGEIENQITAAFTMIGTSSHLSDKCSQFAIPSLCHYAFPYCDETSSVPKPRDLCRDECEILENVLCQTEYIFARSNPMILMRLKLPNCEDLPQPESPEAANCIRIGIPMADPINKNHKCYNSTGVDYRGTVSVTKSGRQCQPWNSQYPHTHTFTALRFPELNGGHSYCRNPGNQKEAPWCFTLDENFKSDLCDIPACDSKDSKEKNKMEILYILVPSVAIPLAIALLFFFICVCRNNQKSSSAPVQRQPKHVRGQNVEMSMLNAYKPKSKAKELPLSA
Put plainly: FACS, CHO-ROR1 (extracellular segment) cells.

Experiment [5] concerns the target T4, ROR1 extracellular segment with Kringle domain removed on CHO cells (human, UniProt Q01973 30-472, limits assumed).
T4 construct: Transfected into CHO cells; also called CHO-ROR1 (with Kringle domain removed)
Put plainly: FACS, CHO-ROR1 (with Kringle domain removed) cells.

In experiment [6] the target is T5, ROR1 extracellular segment with Frizzled domain removed on CHO cells (human, UniProt Q01973 30-472, limits assumed).
T5 construct: Transfected into CHO cells; also called CHO-ROR1 (with Frizzled domain removed)
T5 sequence (Q01973 other isoform, or with tags, fused parts or gaps limits assumed): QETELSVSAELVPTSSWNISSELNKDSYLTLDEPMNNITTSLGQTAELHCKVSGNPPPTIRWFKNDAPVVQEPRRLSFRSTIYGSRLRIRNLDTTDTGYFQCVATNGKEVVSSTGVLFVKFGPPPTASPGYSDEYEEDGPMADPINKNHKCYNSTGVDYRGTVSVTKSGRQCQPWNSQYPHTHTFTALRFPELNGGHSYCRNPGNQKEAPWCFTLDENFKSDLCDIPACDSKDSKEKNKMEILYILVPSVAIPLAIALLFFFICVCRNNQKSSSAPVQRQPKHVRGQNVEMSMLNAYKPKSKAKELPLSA
The experiment is described as follows: FACS, CHO-ROR1 (with Frizzled domain removed) cells.

Experiment [7] deals with T3, ROR1 extracellular segment sequence …. Put plainly: FACS, ROR1 transferred onto CHO cell surface (summing up of Example 9).
For experiment [8], the target named is T2, Extracellular domain of human ROR1 …. The experiment is described as follows: ELISA, purified ROR1-ECD. On the technique in general: In an ELISA, binding on a coated surface is turned into a signal by an enzyme label.
Experiment [9] has as its target T1, human ROR1 on the surface of tumor cells. The experiment is described as follows: cell-based or functional assay.
For experiment [10], the target named is T6, ROR1 extracellular segment with Ig-like domain removed on CHO cells (human, UniProt Q01973 30-472, limits assumed).
T6 construct: Transfected into CHO cells; also called CHO-ROR1 (with Ig-like domain removed)
T6 sequence (Q01973 other isoform, or with tags, fused parts or gaps limits assumed): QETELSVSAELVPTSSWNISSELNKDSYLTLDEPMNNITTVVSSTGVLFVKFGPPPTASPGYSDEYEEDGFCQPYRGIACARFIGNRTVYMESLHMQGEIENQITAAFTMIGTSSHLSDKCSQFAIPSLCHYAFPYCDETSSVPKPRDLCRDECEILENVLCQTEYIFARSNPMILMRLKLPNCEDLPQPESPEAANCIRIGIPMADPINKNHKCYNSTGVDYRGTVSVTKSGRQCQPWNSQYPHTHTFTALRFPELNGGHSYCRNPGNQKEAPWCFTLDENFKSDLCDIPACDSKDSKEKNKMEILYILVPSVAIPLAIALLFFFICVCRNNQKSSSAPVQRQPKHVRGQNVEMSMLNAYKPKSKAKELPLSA
Put plainly: FACS, CHO-ROR1 (with Ig-like domain removed) cells.

Changes are numbered by the printed parent chain.

T2 sequence (Q01973 other isoform, or with tags, fused parts or gaps): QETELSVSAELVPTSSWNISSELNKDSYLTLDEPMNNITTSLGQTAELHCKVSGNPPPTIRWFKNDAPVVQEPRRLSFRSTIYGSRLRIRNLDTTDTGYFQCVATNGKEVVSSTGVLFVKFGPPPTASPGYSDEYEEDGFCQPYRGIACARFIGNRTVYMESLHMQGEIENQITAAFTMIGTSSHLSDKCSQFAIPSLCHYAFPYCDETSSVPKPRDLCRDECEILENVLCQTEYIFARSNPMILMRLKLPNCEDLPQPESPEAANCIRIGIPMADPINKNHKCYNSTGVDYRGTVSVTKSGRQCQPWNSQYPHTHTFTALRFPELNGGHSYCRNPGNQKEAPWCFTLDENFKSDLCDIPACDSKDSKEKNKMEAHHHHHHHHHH
T4 sequence (Q01973 other isoform, or with tags, fused parts or gaps limits assumed): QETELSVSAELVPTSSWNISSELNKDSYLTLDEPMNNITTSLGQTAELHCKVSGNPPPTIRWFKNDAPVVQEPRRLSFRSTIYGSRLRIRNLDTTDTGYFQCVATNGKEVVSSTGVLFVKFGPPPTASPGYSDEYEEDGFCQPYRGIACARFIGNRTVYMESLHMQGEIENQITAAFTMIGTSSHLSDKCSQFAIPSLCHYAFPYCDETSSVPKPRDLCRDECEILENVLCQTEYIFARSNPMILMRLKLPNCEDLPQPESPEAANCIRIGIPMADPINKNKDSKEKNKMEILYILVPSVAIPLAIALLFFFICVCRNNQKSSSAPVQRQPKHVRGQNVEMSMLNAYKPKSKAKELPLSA
T1 sequence (Q01973 30-937): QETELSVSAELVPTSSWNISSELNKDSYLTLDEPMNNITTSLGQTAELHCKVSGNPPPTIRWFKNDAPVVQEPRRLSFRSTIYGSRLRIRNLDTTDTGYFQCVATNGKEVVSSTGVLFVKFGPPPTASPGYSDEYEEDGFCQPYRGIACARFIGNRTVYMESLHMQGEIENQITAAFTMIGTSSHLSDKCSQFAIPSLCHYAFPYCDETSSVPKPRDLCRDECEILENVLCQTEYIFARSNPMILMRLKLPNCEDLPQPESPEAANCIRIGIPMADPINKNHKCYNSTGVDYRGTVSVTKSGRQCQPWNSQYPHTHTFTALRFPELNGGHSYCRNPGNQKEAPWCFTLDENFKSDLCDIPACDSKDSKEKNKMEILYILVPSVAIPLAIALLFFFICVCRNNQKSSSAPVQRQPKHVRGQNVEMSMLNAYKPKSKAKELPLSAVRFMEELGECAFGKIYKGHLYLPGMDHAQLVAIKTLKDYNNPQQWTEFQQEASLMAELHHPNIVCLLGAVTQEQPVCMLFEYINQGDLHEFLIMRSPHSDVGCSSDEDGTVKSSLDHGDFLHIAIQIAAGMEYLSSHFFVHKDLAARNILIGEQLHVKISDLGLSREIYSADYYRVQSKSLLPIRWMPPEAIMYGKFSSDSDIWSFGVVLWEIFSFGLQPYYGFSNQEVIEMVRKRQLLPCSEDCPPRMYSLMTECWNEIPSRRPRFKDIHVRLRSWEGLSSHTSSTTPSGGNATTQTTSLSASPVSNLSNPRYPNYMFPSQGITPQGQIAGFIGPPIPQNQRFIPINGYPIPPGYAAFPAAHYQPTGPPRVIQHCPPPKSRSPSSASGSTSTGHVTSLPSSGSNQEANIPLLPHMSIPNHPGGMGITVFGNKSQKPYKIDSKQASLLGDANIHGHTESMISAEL

B1: mAb003c (antibody, V domains shown)
VH: EVQLVESGGGLVKPGGSLKLSCAASGFTFSSYAMSWVRQTPEKRLEWVATISDGGSYTYYPDSVKGRFTISRDNAKNNLYLQMSHLKSEDTDMYYCVRGGYYYNLYAMDYWGQGTSVTVSS
VL: DIVLTQSPASLAVSLGQRAIISCKASQSVSFAGTSLMHWYQQKPGQQPKLLIYRASNLEAGVPTRFSGSGSRADFTLNIHPVEEDDAATYYCQQSGEYPWTFGGGTKLEIK
notes: Human-mouse chimeric
Consider B1, for which the concentration for a half-maximal effect (EC50) in experiment [1] was found to be 0.76 nM; in [2], 1.1 nM; in [3], 0.013 nM; in experiment [4] it was 1.47 nM; in experiment [5], 1.74 nM; in [6] it was 1.78 nM. The concentration giving a half-maximal response (EC50) in experiment [7] is < 2 nM.

B2: mAb005 (antibody, IgG2b, V domains shown)
VH: B1 VH with S30N, S63N, V64E, D92A, M93I
VL: B1 VL with A32P, A73T, A87T, G96R, K107Q
notes: Mouse monoclonal antibody, IgG2b/k
For the molecule B2, the EC50 in experiment [2] turned out to be 0.16 nM; in experiment [8], 0.043 nM.

B3: mAb005c_v1 (antibody, IgG1, V domains shown)
VH: B1 VH with S30N, G54A, S63N, V64E, D92A, M93I
VL: B1 VL with A32P, A73T, A87T, G96R, K107Q
notes: Chimeric mutant in hIgG1,k vector; the VH entry already holds the site-directed change; also called human-mouse chimeric antibody mutant of mAb005c; site-directed mutant of mAb005c
Turning to B3, the EC50 amounted to 0.067 nM in experiment [2] and 0.046 nM in experiment [3].

B4: mAb003 (antibody, IgG2c, V domains shown)
VH: B1 VH
VL: B1 VL
notes: Mouse monoclonal antibody, IgG2c/k
Take B4: the half-maximal effective concentration (EC50) in experiment [2] turned out to be 0.45 nM; in experiment [8], 0.023 nM.

B5: Hu005-44-MMAE (antibody, human IgG1, DAR about 4.12, V domains shown)
VH: EVQLVESGGGLVKPGGSLRLSCAASGFTFNSYAMSWVRQTPGKGLEWVATISDAGSYTYYPDNEKGRFTISRDNAKNSLYLQMNSLRAEDTAIYYCVRGGYYYNLYAMDYWGQGTLVTVSS
VL: DIVLTQSPDSLAVSLGERATINCKASQSVSFPGTSLMHWYQQKPGQQPKLLIYRASNLEAGVPDRFSGSGSRTDFTLTISSLQAEDVAVYYCQQSREYPWTFGGGTKVEIK
modifications: vcMMAE on cysteines after TCEP reduction, positions not given
notes: Antibody-drug conjugate of Hu005-44 (human IgG1, Kappa) with vcMMAE
As for B5, the binding result in experiment [2] and in experiment [3] was “binds” in each case.

B6: Hu005-46-MMAE (antibody, human IgG1, DAR about 4.07, V domains shown)
VH: B5 VH with G44R
VL: B5 VL
modifications: vcMMAE on cysteines after TCEP reduction, positions not given
notes: Antibody-drug conjugate of Hu005-46 (human IgG1, Kappa) with vcMMAE
As to B6, the binding result in [2] and in experiment [3] was “binds” throughout.

B7: Hu005-45 (antibody, V domains shown)
VH: B5 VH with G42E
VL: B5 VL
notes: Humanized
As to B7, the binding result in experiment [2] and in experiment [3] was “binds” throughout.

B8: mAb004 (antibody, IgG2b, V domains shown)
VH: EVQLVESGGGLVQPKGSLKLSCAASGFTFNTYAMHWVRQAPGKGLEWVARIRSKSSNFATYYADSVRDRFTISRDDSQSMLYLQMNNLKTEDTAMYYCVRGYGPSYFSLDYWGQGTSVTVSS
VL: DVVMTQTPLSLPVSLGDQASISCRSSQSLVHSNGNTYLHWYLQKPGQSPKLLIYKVSNRFSGVPDRFSGSGSGTDFTLKINRVEAEDLGVYFCSQSTHAIYTFGGGTKLEIK
notes: as for B2
Consider B8, for which the concentration for a half-maximal effect (EC50) in experiment [2] is 0.15 nM; in [8], 0.038 nM.

B9: mAb001c-vcMMAE (antibody, human IgG1, DAR about 3.81, V domains shown)
VH: EVRLQQSGPVLVKPGASVKMSCKASGYTFTDYNLHWVKQSHRQSLEWIGYINPNHDGTSYNQKFQGKATLTVDRSSSTAYMEFRSLTSEDSAVYYCARRVRTGTGLDDWGQGTTLTVSS
VL: DVLMTQSPLSLPVSLGDQASISCRSSHNIVHTNGNTYLEWYLQKPGQSPKLLIYKVSNRFSGVPDRFSGSGSGTYFTLTISRVEAEDLGVYYCFQGSRFPYTFGGGTKLEIK
modifications: vcMMAE on cysteines after TCEP reduction, positions not given
Turning to B9, in experiment [9], the “in vitro anti-proliferative activity IC50, HCC827 cells (CCK8)” value is < 10 nM; the “in vitro anti-proliferative activity IC50, HCC1187 cells (CCK8)” value is < 10 nM; the “in vitro anti-proliferative activity IC50, HT-29 cells (CCK8)” value was < 10 nM; the “in vitro anti-proliferative activity IC50, MCF-7 cells (CCK8)” value was > 100 nM. Besides, in [9], the “in vitro anti-proliferative activity IC50, MDA-MB-231 cells (CCK8)” value is < 10 nM; the “in vitro anti-proliferative activity IC50, NCI-H446 cells (CCK8)” value was < 10 nM; the “in vitro anti-proliferative activity IC50, NCI-N87 cells (CCK8)” value is < 10 nM.

B10: mAb006 (antibody, IgG2b, V domains shown)
VH: EVQLQQSGPELVKPGASLKMSCKASGYTFPDYNIHWVKQSHGKSLEWIGYINPNNGGTTYNQKFKGKATLTVSKSSSTAYMELRSLTSEDSAVYSCARRGYGSSYAMDYWAQGTSVTVSS
VL: B9 VL with N28I, Y75D, T79K, F99V
notes: as for B2
For the molecule B10, the EC50 was determined as 0.19 nM in experiment [2] and 0.059 nM in [8].

B11: mAb007c (antibody, V domains shown)
VH: B10 VH with L18V, P30T, I34M, T59S, S73N, E89D, S95Y, S104G, A111G
VL: B9 VL with S7T, H27Q, N28S, K44N, S57F, Y75D, T79K, R98L
notes: Human-mouse chimeric
For B11, the EC50 in experiment [1] amounted to 0.28 nM; in experiment [2] it was 0.25 nM; in experiment [3], 0.012 nM; in experiment [4] it was 0.54 nM; in experiment [10], 0.36 nM; in experiment [5], 1.03 nM. The EC50 in experiment [6] was 1.25 nM; in experiment [7], < 2 nM.

B12: mAb007 (antibody, IgG2b, V domains shown)
VH: B10 VH with L18V, P30T, I34M, T59S, S73N, E89D, S95Y, S104G, A111G
VL: B9 VL with S7T, H27Q, N28S, K44N, S57F, Y75D, T79K, R98L
notes: as for B2
For B12, the results for the EC50 in experiment [2] and in [8] were 0.15 nM and 0.066 nM, respectively.

B13: mAb006c (antibody, V domains shown)
VH: B10 VH
VL: B9 VL with N28I, Y75D, T79K, F99V
notes: Human-mouse chimeric
Regarding B13, the EC50 in [1] came to 0.28 nM; in experiment [2], 0.4 nM; in [3], 0.009 nM; in [4], 0.71 nM; in [10], 0.37 nM; in experiment [5], 1.59 nM. The EC50 is 1.64 nM in [6] and < 2 nM in experiment [7].

B14: mAb001 (antibody, IgG2b, V domains shown)
VH: B9 VH
VL: B9 VL
notes: as for B2
Take B14: the values for the concentration giving a half-maximal response (EC50) in experiment [2] and in experiment [8] were 0.073 nM and 0.049 nM, respectively.

B15: mAb009c (antibody, V domains shown)
VH: B10 VH with M20L, G57N, T59N, K65E, E89D, Y109F, A111G
VL: B9 VL with S7T, D17N, N28I, Y75D, T79K, F99V
notes: Human-mouse chimeric
On to B15, for which the EC50 in [1] is 0.25 nM; in experiment [2] it was 0.33 nM; in experiment [3] it was 0.017 nM; in experiment [4], 0.79 nM; in [10], 0.45 nM; in experiment [5], 1.62 nM. The results for the EC50 in experiment [6] and in experiment [7] were 1.68 nM and < 2 nM, respectively.

B16: mAb009 (antibody, IgG2b, V domains shown)
VH: B10 VH with M20L, G57N, T59N, K65E, E89D, Y109F, A111G
VL: B9 VL with S7T, D17N, N28I, Y75D, T79K, F99V
notes: as for B2
B16: the concentration giving a half-maximal response (EC50) in [2] came to 0.16 nM; in experiment [8], 0.062 nM.

B17: mAb001c_v1 (antibody, IgG1, V domains shown)
VH: B9 VH with G57A
VL: B9 VL with G34A
notes: Chimeric mutant in hIgG1,k vector; the entries already hold the site-directed changes; also called human-mouse chimeric antibody mutant of mAb001c; site-directed mutant of mAb001c
For B17, the figures for the 50% effective concentration (EC50) in experiment [2] and in experiment [3] were 0.073 nM and 0.028 nM, respectively.

B18: mAb008 (antibody, IgG2b, V domains shown)
VH: B10 VH with L18V, G26E, P30T, I34M, S73N, E89D, S95Y, S104G, A111G, T114A
VL: B9 VL with M4L, S7T, Q18R, R24T, H27Q, N28S, K44N, Y75D, T79K, R98L
notes: as for B2
Take B18: the values for the concentration giving a half-maximal response (EC50) in experiment [2] and in [8] were 0.11 nM and 0.053 nM, respectively.

Usually EC50 stands for the concentration at which the effect is half-maximal.
